In the RNAGym collection of RNA variant scans (doi:10.7554/elife.90254):

B1: LINE1-full (parent)
chain: UACGUAGGUGGUUUUCCCCUGAUAGUGCUAAGGGGGCCUGGAAGUUUGGACUGGGCAGAGCUCAACACAGCGUGGCAAAGUGGCUGUGGCUAGACUGCCUCUCUGGAUUCCUCGUCACUCAGCAGGGCAUCUCUGAGAGAAAUGCC

Variants of: B1
Experiment: self-cleavage, relative activity (ratio to wild type); higher = more cleavage; in vitro, sequencing; the parent is a self-cleaving ribozyme

| Variant | self-cleavage |
| --- | --- |
| UACGUAGGUGGUUUUCCCCUGAUAGUGCUAAGGGGGCCUGGAAGUUUGGACUGGGCAGAGCUCAGCACAGCGUGGCAAAGUGGCUGUGGCUAGACUGCCUCUCUGGAUUCCUCGUCACUCAGCAGGUCAUCUCUGAGAGAAAUGCC | 0.04 |
| UACGUAGGUGGUUUUCCCCUGAUAGUGCUAAGGGGGCCUGGAAGUUUGGACUGGGCAGAGCUCAACCCAGCGUGGCAAAGUGGCUGUGGCUAGACUGCCUCCCUGGAUUCCUCGUCACUCAGCAGGGCAUCUCUGAGAGAAAUGCC | 0.04 |
| UACGUAGGUGGUUUUCCCCUGAUAGUGCUAAGGGGGCCUGGAUGUUUGGACUGGGCAGAGCUCAACACAGCGUGGCAAAGUGGCUGUGGCUAGACUGCCUCUCUGGAUUCCCCGUCACUCAGCAGGGCAUCUCUGAGAGAAAUGCC | 1.48 |
| UACGUAGGUGGUUUUCCCCUGAUAGUGCUAAGGGGGCCUGGAAGUUUGGACUGGGCAGAGCUCAACACAGCGUGGCAAAGUGGCUGUGGCUAGUCUGCCUCUCUGGAUCCCUCGUCACUCAGCAGGGCAUCUCUGAGAGAAAUGCC | 0.22 |
| UACGUAGGUGGUUUUCCCCUGAUAGUGCUAAGGGGGCCUGGAAGUUUGGACUGGGCAGAGCUCAACACAGUGUGGCAAAGUGGCUGUGGCUAGACUGCCUCUCUGGAUUCCUCGUCACUCAGCAGGGCAUCUCUGAGGGAAAUGCC | 1.21 |
| UACGUAGGUGGUUUUCCCCUGAUAGUGCUAAGGGGGCCUGGAAGAUUGGACUGGGCAGAGCUCAACACAGCGUGGCAAAGUGGCUGUGGCUAGAUUGCCUCUCUGGAUUCCUCGUCACUCAGCAGGGCAUCUCUGAGAGAAAUGCC | 0.18 |
| UACGUAGGUGGUUUUCCCCUGAUAGUGCUAAGGGGGCUUGGAAGUUUGGACUGGGCAGAGCUCAACACAGCGUGGCAAAGUGGCUGUGGCUAGACUGCCUCUCUGGGUUCCUCGUCACUCAGCAGGGCAUCUCUGAGAGAAAUGCC | 1.63 |
| UACGUAGGUGGUUUCCCCCUGAUAGUGCUAAGGGGGCCUGGAAGUUUGGACUGGGCAGAGCUCAACACAACGUGGCAAAGUGGCUGUGGCUAGACUGCCUCUCUGGAUUCCUCGUCACUCAGCAGGGCAUCUCUGAGAGAAAUGCC | 0.33 |
| UACGUAGGUGGUUUUCCCCUGAUAGUGCUAAGGGGGCCUGUAAGUUUGGACUGGGCAGAGCUCAACACAGCGUGGCAAAGUGGCUGUGGCUAGACUGCCUCUCUGGAUUCCUCGUCUCUCAGCAGGGCAUCUCUGAGAGAAAUGCC | 1.24 |
| AGCGUAGGUGGUUUUCCCCUGAUAGUGCUAAGGGGGCCUGGAAGUUUGGACUGGGCAGAGCUCAACACAGCGUGGCAAAGUGGCUGUGGCUAGACUGCCUCUCUGGAUUCCUCGUCACUCAGCAGGGCAUCUCUGAGAGAAAUGCC | 1.2 |
| UACGUUGGUGGUUUUCCCCUGAUAGUGCUAAGGGGGCCUGGAAGUUUGGACUGGGCAGAGCUCAACACAGCGUGGCAAAGUGGCUGUGGCUAGACUGCCUCUCUGGAUUCCUCGUCGCUCAGCAGGGCAUCUCUGAGAGAAAUGCC | 0.3 |
| UACAUAGGUGGUUUUCCCCUGAUAGUGCUAAGGGGGCCUGGAAGUUUGGACUGGGCAGAGCUCAACACAUCGUGGCAAAGUGGCUGUGGCUAGACUGCCUCUCUGGAUUCCUCGUCACUCAGCAGGGCAUCUCUGAGAGAAAUGCC | 0.11 |
| UACGUAGGUGGUUUUCCCCUGAUAGUGCUAAGGGGGCCUGGAAGUUUGGACUGGGCAGAGCUCAACACAGCGUGGCAAAGUGGCUGUGGCUAGACUGCCUCUCUGGAUUCCUCGUCACUCAGCAGGGCCACUCUGAGAGAAAUGCC | 1.47 |
| UACGUAGGUGGUUUUCCCCUGAAAGUGCUAAGGGGGCCUGGAAGUUUGGACUGGGCAGAGCUCAACACAGCGUGGCAAAGUGGCUGUGGCUAGACUGCCUCACUGGAUUCCUCGUCACUCAGCAGGGCAUCUCUGAGAGAAAUGCC | 1.18 |
| UACGUAGGUGGUUUUCCCCUGAUAGUGCUAAGGGGGCCUGGAAGUUAGGACUGGGCAGAGCUCAACACAGCGUGGCAAAGUGGCUGUGGCUAGACUGCCUCUCUGGAUUCCACGUCACUCAGCAGGGCAUCUCUGAGAGAAAUGCC | 0.7 |
| UACGUAGGUGGUUUUCCCCUGAUAGUGCUAAGGGGGCCUGGAAGUUUGGACUGGGCAGAGCUCAUCACAGCGUGGCAAAGUGGCUGUGGCUAGACUGCCUCUCUGGAUUCCUCGUCACUCAGCAGGGCAUCUCUGAGAGAAGUGCC | 0.19 |
| UACGUAGGUGGUUUUCCCCUGAUAGUGCUAAGGGGGCCUGGAAGUUUGGACUGGGCAGAGCUCAACACAGCGUGGCAAAGUGGCUGUGGCUAGACUGCCACUUUGGAUUCCUCGUCACUCAGCAGGGCAUCUCUGAGAGAAAUGCC | 0.44 |
| UACGUAGGUGGUUUUCCCCUGAUAGUGCUAAGGGGGCCUGGAAGUUUGGACUGGGCAGAGCUCAACACAGCGUGGCAAAGUAGUUGUGGCUAGACUGCCUCUCUGGAUUCCUCGUCACUCAGCAGGGCAUCUCUGAGAGAAAUGCC | 0.51 |
| UACGUAGGUGGUUUUCCCCAGAUAGUGCUAAGGGGGCCUGGAAGUUUGGACUGGGCAGAGCUCAACACAGCGUGGCAAAGUGGCUGAGGCUAGACUGCCUCUCUGGAUUCCUCGUCACUCAGCAGGGCAUCUCUGAGAGAAAUGCC | 0.11 |
| UACGUAGGUGGUUUUCCCCUGAUAGUGCUAAGGGGGCCUGGAAGUUUGGACUGGGCAGAGCUCAACACAGCGGGGCAAAGUGGCUGUGGCUAGACUGCCUCUCUGGAUUCCUCGUCACUCAGCAGGGCAUCUCUGAGAGGAAUGCC | 1.21 |

| Variant | self-cleavage |
| --- | --- |
| UACGUAGGUGGUUUUCCCCUGAUAGUGCUAAGGGGGCCUGGAAGUUUGGACUGGGCAGAGCUCAACACAGCGUGGCAAAGUGGCUGUGGCUAGACUGCCUCUCUGGAUUCCUCAUCACUCAGCAGGGCGUCUCUGAGAGAAAUGCC | 1.26 |
| UACGUAGGUGGUUUUCCCCUGAUAGUGCUAAGGGGGCCUGGAAGUUUGGACUGGGCAGAGCUCAACACAGCGUGGCAAAGUAGCUGUGGCUAGACUGCCUCUCUGGAUUCCUCGUCACUCAGCAGGGCAUCCCUGAGAGAAAUGCC | 2.22 |
| UACGUAGGUGGUUUUCCCCCGAUAGUGCUAAGGGGGCCUGGAAGUUUGGACUGGGCAGAGCUCAACACAGCGUGGCAAAGUGGGUGUGGCUAGACUGCCUCUCUGGAUUCCUCGUCACUCAGCAGGGCAUCUCUGAGAGAAAUGCC | 0.09 |
| UACGUAGGUGGUUUUCCCCAGAUAGUGCUAAGGGGGCCUGGAAGUUUGGACUGGGCAGAGCUCAACACAGCGUGGCAAAGUGGCUGUGGCUAGACUGCCUCUCUGGAUUCCUCGUCACUCAGCAGGGCAUCUCUGAGGGAAAUGCC | 1.27 |
| UACGUAGGUGGUUUUCCCCUGAUAGUGCUAAGGGGGCCUGGAAGUUUGGACUGGGCAGAGCUCAACACAGCGUGGCAAAGUGGCCGUGGCUAGACUGCCUCUCUGGAUUCCUCGACACUCAGCAGGGCAUCUCUGAGAGAAAUGCC | 0.19 |
| UACGUAGGUGGAUUUCCCCUGAUAGUGCUAAGGGGGCCUGGAAGUUUGGACUGGGCAGAGCUCAACACAGCGGGGCAAAGUGGCUGUGGCUAGACUGCCUCUCUGGAUUCCUCGUCACUCAGCAGGGCAUCUCUGAGAGAAAUGCC | 0.73 |
| UACGUAGGUGGUUUUCCCCUGAUAGUGCUAAGGGGGCCUGGAAGAUUGGACUGGGCAGAGCUCAACUCAGCGUGGCAAAGUGGCUGUGGCUAGACUGCCUCUCUGGAUUCCUCGUCACUCAGCAGGGCAUCUCUGAGAGAAAUGCC | 0.09 |
| UACGUAGGUGGUUUUCCCCUGAUAGUGCUAAGGGGGCCUGGAAGUUUGGACUGGGCAGAGCUCAACACAGCGUGGCAAAGUGGCUGUGGCUAGACUGCCUCUCUGGAUUCCUCGUCACUCAGCAGGGUAUCUCUGAGAGGAAUGCC | 0.89 |
| UACGUAGGUGGUUUUCCCCUGAUAGUGCUAAGGGGGCCUGGAAGUUUGGACUGGGCAGAGCUCAACACAGCGUGGCAAAGUGGCUGUGGUUAGACUGCCUCUCUGGAUUCCUCGUCACUCAGCAGGGCAUCUCUGAGAGAGAUGCC | 0.03 |
| UACGUACGUGGUUUUCCCCUGAUAGUGCUAAGGGGGCCUGGAAGUUUGGACUGGGCAGAGCUCAACACAGCGUGGCAAAGUGGCUGUGGCUAGACUGCCUCUCUGGAUUCCUCGUCACUCAGCAGGGCAUCUCUGAGAGAAAUGCC | 1.4 |
| UACGUAGGUGGUUUUCCCCUGAUAGUGCUAAGGGGGCCCGGAAGUUUGGACUGGGCAGAGCACAACACAGCGUGGCAAAGUGGCUGUGGCUAGACUGCCUCUCUGGAUUCCUCGUCACUCAGCAGGGCAUCUCUGAGAGAAAUGCC | 0.04 |
| UACGUAGGUGGUUUUCCCCCGAUAGUGCUAAGGGGGCCUGGAAGUUUGGACUGGGCAGAGCUCAACACAGCGUGGCAAAGUGGCUGUGGCUAGACUGCCUCUCUGGAUUCCUCGUCACUCAGCAGGGCAACUCUGAGAGAAAUGCC | 1.65 |
| UACGUAGGUGGUUUUCCCCUGAUAGUGCUAAGGGGGCCUGGAGGUUUGGACUGGGCAGAGCUCAACACAGCGUGGCAAAGUGGCUGUGGCUAGACUGCCUCUCUGGAUUCCUCGUCACUCAGCAGGGCAUCUCUGAGAGAAAUACC | 1.39 |
| UACGUAGGUGGUUUUCCCCUGAUAGUGCUAAGGGGGCCUGGAAGUUUGGACUGGGCAGAGCUCAACACAGCGUGGCAAAGUGGCUGUGGCUAGACCGCCUCUCUGGAAUCCUCGUCACUCAGCAGGGCAUCUCUGAGAGAAAUGCC | 0.09 |
| UACGUAGGUGGUUUUCCCCUGAUAGUGCUAAGGGGGCCUGGAAGUUCGGACUGGGCAGAGCACAACACAGCGUGGCAAAGUGGCUGUGGCUAGACUGCCUCUCUGGAUUCCUCGUCACUCAGCAGGGCAUCUCUGAGAGAAAUGCC | 0.04 |
| UACGUAGGUGGUUUUCCCCUGAUAGUGCUAAGGGGGCCUGGAAGUUUGGACUGGGCAGAGCUCAACACAGCGUGGCAAUGUGGCAGUGGCUAGACUGCCUCUCUGGAUUCCUCGUCACUCAGCAGGGCAUCUCUGAGAGAAAUGCC | 0.07 |
| UACGUAGGUGGUUUUCCCCUGAUAGUGCUAGGGGGGCCUGGAAGUUUGGACUGGGCAGAGCUCAACACAGCGUGGCAAAGUGGCUGUGGCUAGACUGCCUCUCUGGAUUCCUCGUCACUCAGUAGGGCAUCUCUGAGAGAAAUGCC | 1.02 |
| UACGUAGGUGGUUUUCCCCUGAUAGUGCUAAGGGGGCCUGGAAGUUUGGACUGGGCAGAGCUCAACACAGCGUGGCAAAGUGGCUGUGGCUAGACUGCCUCUCUGGAUUCCUCGUCACUCGGCAGGGCACCUCUGAGAGAAAUGCC | 1.14 |
| UACGUAGGUGGUUUUCCCCUUAUAGUGCUAAGGGGGCCUGGAAGUUCGGACUGGGCAGAGCUCAACACAGCGUGGCAAAGUGGCUGUGGCUAGACUGCCUCUCUGGAUUCCUCGUCACUCAGCAGGGCAUCUCUGAGAGAAAUGCC | 0.72 |
